Measurements published in article PMC8794802.
Changes are numbered by the printed parent chain.

Experiments:
Assay in all cases: EMSA
[1] = target: T1, Pus7 D256A/N305A (Saccharomyces cerevisiae, UniProt Q08647 1-676, D256A;N305A)
T1 sequence: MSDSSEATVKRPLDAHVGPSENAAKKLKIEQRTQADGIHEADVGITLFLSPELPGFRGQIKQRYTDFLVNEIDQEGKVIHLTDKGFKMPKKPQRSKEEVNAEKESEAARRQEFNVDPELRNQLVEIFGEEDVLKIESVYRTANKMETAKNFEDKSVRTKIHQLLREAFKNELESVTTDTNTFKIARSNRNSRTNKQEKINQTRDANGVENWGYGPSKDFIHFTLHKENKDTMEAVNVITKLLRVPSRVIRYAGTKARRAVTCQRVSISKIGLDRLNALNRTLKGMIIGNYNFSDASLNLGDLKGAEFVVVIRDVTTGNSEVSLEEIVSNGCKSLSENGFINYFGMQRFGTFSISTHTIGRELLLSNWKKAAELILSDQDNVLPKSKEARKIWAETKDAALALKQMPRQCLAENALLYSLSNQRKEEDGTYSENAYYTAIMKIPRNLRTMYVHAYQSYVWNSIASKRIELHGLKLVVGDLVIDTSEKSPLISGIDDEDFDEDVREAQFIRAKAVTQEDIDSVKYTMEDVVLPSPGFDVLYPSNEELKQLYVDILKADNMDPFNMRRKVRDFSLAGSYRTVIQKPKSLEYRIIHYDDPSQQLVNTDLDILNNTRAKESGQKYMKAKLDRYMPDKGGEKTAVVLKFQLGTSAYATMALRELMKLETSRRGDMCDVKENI

[2] = target: T2, Pus7 D256A/H161A (Saccharomyces cerevisiae, UniProt Q08647 1-676, H161A;D256A)
T2 sequence: T1 sequence with H161A, A305N

[3] = target: T3, Pus7 D256A/F307A (Saccharomyces cerevisiae, UniProt Q08647 1-676, D256A;F307A)
T3 sequence: T1 sequence with A305N, F307A

B1: CDC8 (cdc8-FL, 61 nt) (ssRNA)
RNA: GUCAAUCACGAUUGUAGACGUUACUAAUAAGGGCAUUCAGGAAGUUGAAGCGCUUAUUUGG
- Kd [1]: 230 ± 60 nM
- Kd [2]: 170 ± 40 nM
- Kd [3]: 340 ± 170 nM
